Assay [1] concerns the target FcγRIIIa on NK cells (human (endogenous in NK cells)) (UniProt P08637).
For assay [2] the target is unchanged. Briefly: flow cytometry on cells; purified human NK cells incubated on ice with titrated monomeric antibody (0.03–10 µg/mL), detected with anti-F(ab′)2-Alexa Fluor 647.

Our source for the fold decrease in EC50 of NK cell-mediated ADCC (LDH release, 4 h, 10:1) against CAL51, compared with IgG1-GM and IgG1-DE, fold decrease in EC50 of NK cell-mediated ADCC (LDH release, 4 h, 10:1) against CAL51, compared with IgG1-WT and fold greater KD than IgG1-WT (so in the source); stronger binding is meant values is publication PMC12616241.

Sequence of FcγRIIIa on NK cells (human (endogenous in NK cells)) (P08637 17-208): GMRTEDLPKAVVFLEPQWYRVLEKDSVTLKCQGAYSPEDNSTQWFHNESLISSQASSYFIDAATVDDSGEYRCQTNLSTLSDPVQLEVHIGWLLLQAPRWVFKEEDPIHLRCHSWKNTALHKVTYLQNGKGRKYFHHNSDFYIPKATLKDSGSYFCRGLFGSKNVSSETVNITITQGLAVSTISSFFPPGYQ

On to “anti-FRα IgG1-DE/GM (MOv18 variable regions, human IgG1 with S239D and I332E, glycomodified) (antibody)”, for which, in assay [1], the fold decrease in EC50 of NK cell-mediated ADCC (LDH release, 4 h, 10:1) against CAL51, compared with IgG1-GM and IgG1-DE is 100 fold; the fold decrease in EC50 of NK cell-mediated ADCC (LDH release, 4 h, 10:1) against CAL51, compared with IgG1-WT was 4000 fold. In assay [2], this substance yielded a fold greater KD than IgG1-WT (so in the source); stronger binding is meant of 100 fold.
